Data published in US20140072613A1, “Compositions and Methods for Treating Cutaneous Scarring” (priority 2012, published 2014).

How the values were obtained:
Test in all cases: biochemical
Assay type in all cases: biochemical
266 human kinases [1] = target: 266 human kinases (Homo sapiens, UniProt Q86Z02); conditions: HIPK1(h); 100 μM
Procedure, shortened: (§1)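 Kinase phosphorylates cationic substrate with radiolabelled ATP phosphate; substrate retained on anionic filter membrane; scintillation count; % of 100% activity control.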

266 human kinases [2] = target: 266 human kinases (Homo sapiens, UniProt Q9H2X6); conditions: HIPK2(h); 100 μM
266 human kinases (Homo sapiens, UniProt Q9H2X6), sequence (Q9H2X6 whole entry): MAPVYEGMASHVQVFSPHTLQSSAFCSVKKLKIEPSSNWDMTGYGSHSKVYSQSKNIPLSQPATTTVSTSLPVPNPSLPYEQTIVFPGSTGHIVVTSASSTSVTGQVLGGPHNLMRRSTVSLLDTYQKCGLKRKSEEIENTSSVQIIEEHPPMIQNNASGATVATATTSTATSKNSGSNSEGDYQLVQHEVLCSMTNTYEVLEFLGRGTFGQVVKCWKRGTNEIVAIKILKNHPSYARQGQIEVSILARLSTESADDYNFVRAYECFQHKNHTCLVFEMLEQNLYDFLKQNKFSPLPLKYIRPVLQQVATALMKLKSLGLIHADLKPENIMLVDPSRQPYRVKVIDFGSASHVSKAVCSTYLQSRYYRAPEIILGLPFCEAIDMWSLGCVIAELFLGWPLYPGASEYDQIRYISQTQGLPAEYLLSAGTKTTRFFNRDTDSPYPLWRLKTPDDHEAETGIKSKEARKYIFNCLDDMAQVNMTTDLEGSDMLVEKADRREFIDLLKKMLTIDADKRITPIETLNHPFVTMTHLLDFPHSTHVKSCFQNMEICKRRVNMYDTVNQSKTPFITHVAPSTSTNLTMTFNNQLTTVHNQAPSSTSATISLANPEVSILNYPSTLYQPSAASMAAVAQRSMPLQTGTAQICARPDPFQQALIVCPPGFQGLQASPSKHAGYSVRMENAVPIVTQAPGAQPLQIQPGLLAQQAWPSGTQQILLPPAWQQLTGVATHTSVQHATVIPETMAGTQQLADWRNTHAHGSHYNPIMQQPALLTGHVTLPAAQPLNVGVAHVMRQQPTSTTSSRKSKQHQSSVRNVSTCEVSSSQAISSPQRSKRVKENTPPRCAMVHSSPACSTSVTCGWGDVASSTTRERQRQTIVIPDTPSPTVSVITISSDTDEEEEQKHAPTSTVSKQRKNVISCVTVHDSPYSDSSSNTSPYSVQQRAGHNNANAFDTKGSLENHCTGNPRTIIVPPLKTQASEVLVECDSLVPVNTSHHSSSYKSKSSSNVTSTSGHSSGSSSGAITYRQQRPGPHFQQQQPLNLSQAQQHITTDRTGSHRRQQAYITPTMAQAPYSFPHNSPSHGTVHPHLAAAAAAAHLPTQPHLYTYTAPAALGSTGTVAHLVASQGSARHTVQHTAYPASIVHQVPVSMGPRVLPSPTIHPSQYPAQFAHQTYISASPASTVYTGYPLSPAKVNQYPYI
Procedure, shortened: as §1

266 human kinases [3] = target: 266 human kinases (Homo sapiens, UniProt P24941); conditions: 100 μM
Procedure, shortened: as §1

266 human kinases [4] = target: T1, 266 human kinases (Homo sapiens, UniProt O00141); conditions: SGK(h); 100 μM
T1 sequence (O00141 1-431): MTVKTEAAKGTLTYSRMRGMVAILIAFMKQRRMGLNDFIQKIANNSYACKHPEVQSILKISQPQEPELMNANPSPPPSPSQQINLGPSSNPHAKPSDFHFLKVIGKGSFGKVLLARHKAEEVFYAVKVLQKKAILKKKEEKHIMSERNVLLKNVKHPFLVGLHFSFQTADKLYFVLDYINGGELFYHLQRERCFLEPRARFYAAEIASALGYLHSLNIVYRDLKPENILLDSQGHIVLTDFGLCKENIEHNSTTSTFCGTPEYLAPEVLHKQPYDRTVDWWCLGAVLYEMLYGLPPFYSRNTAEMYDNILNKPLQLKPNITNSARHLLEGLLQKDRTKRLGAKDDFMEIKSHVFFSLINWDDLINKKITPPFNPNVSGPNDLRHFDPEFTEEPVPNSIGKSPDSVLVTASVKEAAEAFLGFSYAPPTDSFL
Procedure, shortened: as §1

266 human kinases [5] = target: 266 human kinases (Homo sapiens, UniProt P00519); conditions: Abl(h); 100 μM
Procedure, shortened: as §1

266 human kinases [6] = target: 266 human kinases (Homo sapiens, UniProt P00519, H396P); conditions: Abl(H8396P)(h); 100 μM
Procedure, shortened: as §1

266 human kinases [7] = target: 266 human kinases (Homo sapiens, UniProt Q16539); conditions: SAPK2a(h); 100 μM
Procedure, shortened: as §1

266 human kinases [8] = target: 266 human kinases (Homo sapiens, UniProt Q5VT25); conditions: MRCKα(h); 100 μM
Procedure, shortened: as §1

266 human kinases [9] = target: 266 human kinases (Homo sapiens, UniProt Q06187, R28H); conditions: BTK(R28H)(h); 100 μM
Procedure, shortened: as §1

266 human kinases [10] = target: T2, 266 human kinases (Homo sapiens, UniProt O14920); conditions: IKKβ(h); 100 μM
T2 sequence (O14920 1-756): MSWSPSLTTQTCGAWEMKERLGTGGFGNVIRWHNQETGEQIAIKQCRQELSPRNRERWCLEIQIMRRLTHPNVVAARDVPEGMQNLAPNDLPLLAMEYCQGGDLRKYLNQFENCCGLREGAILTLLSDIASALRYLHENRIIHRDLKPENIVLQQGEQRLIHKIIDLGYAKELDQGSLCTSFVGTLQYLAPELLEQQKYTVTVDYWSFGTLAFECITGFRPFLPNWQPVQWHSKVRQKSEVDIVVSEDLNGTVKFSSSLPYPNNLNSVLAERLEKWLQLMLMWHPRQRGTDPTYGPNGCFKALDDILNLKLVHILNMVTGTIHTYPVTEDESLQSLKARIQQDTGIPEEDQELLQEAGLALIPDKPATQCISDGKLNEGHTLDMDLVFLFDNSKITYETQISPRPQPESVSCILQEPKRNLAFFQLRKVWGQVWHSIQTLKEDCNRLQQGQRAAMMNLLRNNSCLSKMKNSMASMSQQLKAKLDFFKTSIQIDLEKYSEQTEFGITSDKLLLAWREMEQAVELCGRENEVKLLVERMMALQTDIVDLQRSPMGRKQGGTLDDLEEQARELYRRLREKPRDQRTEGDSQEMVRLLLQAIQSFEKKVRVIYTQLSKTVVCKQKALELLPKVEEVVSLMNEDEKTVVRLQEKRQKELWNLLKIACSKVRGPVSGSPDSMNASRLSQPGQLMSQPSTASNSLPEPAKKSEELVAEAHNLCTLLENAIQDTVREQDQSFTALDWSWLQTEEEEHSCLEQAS
Procedure, shortened: as §1

266 human kinases [11] = target: 266 human kinases (Homo sapiens, UniProt P10721, V654A); conditions: cKit(V654A)(h); 100 μM
Procedure, shortened: as §1

266 human kinases [12] = target: 266 human kinases (Homo sapiens, UniProt P10721, D816H); conditions: cKit(D816H)(h); 100 μM
Procedure, shortened: as §1

266 human kinases [13] = target: 266 human kinases (Homo sapiens, UniProt Q9H1R3); conditions: MLCK(h); 100 μM
266 human kinases (Homo sapiens, UniProt Q9H1R3), sequence (Q9H1R3 whole entry): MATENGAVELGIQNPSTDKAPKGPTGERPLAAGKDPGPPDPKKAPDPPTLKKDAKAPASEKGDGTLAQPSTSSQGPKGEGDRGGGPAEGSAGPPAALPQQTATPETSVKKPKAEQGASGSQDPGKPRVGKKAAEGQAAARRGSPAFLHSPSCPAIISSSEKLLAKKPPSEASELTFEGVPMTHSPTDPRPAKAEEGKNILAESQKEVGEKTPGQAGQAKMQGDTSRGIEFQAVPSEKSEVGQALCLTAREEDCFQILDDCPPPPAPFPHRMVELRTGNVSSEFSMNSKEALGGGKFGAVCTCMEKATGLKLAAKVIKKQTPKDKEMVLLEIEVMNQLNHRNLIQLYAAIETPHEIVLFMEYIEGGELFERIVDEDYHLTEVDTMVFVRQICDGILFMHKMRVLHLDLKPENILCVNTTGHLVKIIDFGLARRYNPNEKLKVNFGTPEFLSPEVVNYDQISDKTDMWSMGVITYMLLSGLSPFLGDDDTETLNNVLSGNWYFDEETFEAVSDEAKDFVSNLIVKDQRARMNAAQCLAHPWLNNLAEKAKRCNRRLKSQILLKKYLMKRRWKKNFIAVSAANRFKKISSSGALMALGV
Procedure, shortened: as §1

266 human kinases [14] = target: 266 human kinases (Homo sapiens, UniProt Q15349); conditions: Rsk3(h); 100 μM
266 human kinases (Homo sapiens, UniProt Q15349), sequence (Q15349 whole entry): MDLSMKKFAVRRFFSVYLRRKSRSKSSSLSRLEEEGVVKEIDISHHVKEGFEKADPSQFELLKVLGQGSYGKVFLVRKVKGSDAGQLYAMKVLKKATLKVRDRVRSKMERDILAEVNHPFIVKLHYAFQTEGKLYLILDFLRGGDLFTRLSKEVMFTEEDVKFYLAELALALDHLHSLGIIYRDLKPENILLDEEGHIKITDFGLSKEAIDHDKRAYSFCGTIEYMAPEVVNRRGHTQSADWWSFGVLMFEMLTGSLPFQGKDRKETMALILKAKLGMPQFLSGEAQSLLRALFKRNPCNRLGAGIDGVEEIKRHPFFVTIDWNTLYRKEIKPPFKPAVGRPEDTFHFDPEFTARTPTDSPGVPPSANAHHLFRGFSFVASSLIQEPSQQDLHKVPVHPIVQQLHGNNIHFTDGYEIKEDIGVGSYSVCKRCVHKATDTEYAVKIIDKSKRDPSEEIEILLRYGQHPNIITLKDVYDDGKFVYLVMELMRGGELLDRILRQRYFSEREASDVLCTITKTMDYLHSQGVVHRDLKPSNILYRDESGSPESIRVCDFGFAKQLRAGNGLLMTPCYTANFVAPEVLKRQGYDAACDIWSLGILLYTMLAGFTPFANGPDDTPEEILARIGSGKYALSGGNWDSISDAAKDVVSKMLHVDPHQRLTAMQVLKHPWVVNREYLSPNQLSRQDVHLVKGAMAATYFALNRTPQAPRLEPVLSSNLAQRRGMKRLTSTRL
Procedure, shortened: as §1

266 human kinases [15] = target: 266 human kinases (Homo sapiens, UniProt O14965); conditions: Aurora-A(h); 100 μM
Procedure, shortened: as §1

266 human kinases [16] = target: 266 human kinases (Homo sapiens, UniProt Q9H4B4); conditions: Plk3(h); 100 μM
266 human kinases (Homo sapiens, UniProt Q9H4B4), sequence (Q9H4B4 whole entry): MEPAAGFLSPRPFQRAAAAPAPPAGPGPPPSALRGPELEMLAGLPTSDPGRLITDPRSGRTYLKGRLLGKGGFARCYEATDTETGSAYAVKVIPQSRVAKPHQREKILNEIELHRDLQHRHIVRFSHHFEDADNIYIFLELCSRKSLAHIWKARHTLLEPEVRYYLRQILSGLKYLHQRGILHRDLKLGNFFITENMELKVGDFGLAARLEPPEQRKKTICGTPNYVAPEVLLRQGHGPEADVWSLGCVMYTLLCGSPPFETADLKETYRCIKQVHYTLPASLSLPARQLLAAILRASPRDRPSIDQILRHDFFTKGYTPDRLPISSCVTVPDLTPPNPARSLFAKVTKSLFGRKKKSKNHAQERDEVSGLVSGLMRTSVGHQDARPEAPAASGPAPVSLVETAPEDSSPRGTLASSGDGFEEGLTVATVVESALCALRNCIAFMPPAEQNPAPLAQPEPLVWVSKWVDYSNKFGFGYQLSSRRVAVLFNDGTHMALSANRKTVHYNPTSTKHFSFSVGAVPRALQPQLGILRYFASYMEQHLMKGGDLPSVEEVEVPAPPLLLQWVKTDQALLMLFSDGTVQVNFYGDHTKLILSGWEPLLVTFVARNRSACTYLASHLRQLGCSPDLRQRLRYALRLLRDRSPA
Procedure, shortened: as §1

266 human kinases [17] = target: 266 human kinases (Homo sapiens, UniProt P34947); conditions: GRK5(h); 100 μM
Procedure, shortened: as §1

266 human kinases [18] = target: 266 human kinases (Homo sapiens, UniProt Q9HCP0); conditions: CK1γ1(h); 100 μM
266 human kinases (Homo sapiens, UniProt Q9HCP0), sequence (Q9HCP0 whole entry): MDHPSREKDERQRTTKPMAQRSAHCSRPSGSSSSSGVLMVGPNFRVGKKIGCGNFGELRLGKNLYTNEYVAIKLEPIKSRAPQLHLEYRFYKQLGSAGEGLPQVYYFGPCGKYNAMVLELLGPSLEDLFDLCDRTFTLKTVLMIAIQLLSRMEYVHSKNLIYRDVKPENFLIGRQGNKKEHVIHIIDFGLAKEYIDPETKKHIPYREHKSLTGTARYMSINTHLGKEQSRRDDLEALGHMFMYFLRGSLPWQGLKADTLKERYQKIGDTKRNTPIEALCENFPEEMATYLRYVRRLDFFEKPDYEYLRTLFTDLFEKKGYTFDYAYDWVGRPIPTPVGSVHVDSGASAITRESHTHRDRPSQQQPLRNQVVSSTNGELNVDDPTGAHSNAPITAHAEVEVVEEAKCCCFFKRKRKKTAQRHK
Procedure, shortened: as §1

266 human kinases [19] = target: 266 human kinases (Homo sapiens, UniProt P53350); conditions: Plk1(h); 100 μM
Procedure, shortened: as §1

266 human kinases [20] = target: 266 human kinases (Homo sapiens, UniProt Q9Y6M4); conditions: CK1γ3(h); 100 μM
Procedure, shortened: as §1

266 human kinases (Homo sapiens, UniProt Q86Z02), sequence (Q86Z02 whole entry): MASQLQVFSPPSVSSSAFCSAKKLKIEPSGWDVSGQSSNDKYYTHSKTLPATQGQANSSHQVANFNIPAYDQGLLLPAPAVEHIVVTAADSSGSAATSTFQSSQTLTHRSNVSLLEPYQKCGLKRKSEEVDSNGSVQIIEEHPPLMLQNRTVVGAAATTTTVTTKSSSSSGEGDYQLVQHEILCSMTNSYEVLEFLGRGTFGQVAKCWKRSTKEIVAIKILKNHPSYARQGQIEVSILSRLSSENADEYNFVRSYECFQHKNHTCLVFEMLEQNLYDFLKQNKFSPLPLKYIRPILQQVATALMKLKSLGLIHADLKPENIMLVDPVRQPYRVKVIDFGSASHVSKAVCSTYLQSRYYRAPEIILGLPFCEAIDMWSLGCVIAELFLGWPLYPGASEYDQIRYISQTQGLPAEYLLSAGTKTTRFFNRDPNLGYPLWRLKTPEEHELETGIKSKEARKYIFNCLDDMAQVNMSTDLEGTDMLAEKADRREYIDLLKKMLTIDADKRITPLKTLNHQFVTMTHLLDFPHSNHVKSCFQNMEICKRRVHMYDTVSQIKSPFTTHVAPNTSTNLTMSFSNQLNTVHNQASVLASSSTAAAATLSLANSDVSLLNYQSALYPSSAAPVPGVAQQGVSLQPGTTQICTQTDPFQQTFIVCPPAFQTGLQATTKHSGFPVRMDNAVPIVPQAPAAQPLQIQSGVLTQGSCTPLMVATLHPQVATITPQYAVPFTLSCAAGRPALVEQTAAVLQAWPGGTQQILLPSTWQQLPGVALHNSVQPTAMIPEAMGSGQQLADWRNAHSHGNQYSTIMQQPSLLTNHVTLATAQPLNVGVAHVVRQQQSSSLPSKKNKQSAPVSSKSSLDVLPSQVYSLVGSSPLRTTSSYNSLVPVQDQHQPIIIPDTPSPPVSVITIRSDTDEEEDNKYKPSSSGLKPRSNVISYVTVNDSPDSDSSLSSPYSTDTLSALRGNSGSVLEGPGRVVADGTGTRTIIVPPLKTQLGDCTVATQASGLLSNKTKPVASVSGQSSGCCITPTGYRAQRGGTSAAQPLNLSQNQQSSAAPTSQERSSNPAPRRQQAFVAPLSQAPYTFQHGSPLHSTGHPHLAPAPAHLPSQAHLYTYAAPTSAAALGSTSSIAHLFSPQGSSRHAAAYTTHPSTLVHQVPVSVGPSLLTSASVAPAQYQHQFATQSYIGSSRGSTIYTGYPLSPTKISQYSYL

HRRIKAWLKKIKALARQLGVAA (mammal) [MMI-0500]
% activity (266 human kinases [1]): 47%
% activity (266 human kinases [2]): 38%
% activity (266 human kinases [3]; CDK2/cyclinA(h)): 87%
% activity (266 human kinases [3]; CDK2/cyclinE(h)): 19%
% activity (266 human kinases [4]): 2%
% activity (266 human kinases [5]): 16%
% activity (266 human kinases [6]): 51%
% activity (266 human kinases [7]): 52%
% activity (266 human kinases [8]): 5%
% activity (266 human kinases [9]): 10%
% activity (266 human kinases [10]): 71%
% activity (266 human kinases [11]): 223%
% activity (266 human kinases [12]): 194%
% activity (266 human kinases [13]): 0%
% activity (266 human kinases [14]): 23%
% activity (266 human kinases [15]): 110%
% activity (266 human kinases [16]): 122%

YARAAARQARAKALNRQLGVA (mammal) [MMI-0200]
% activity (266 human kinases [17]): 135%
% activity (266 human kinases [18]): 98%
% activity (266 human kinases [19]): 128%
% activity (266 human kinases [20]): 96%
